Reference: patent publication US20060257938A1, “Method of screening for drugs that block ligand binding to a lipid binding protein” (priority 2005, published 2006)
Several values for one entry are separate records, joined by “and”; a condition that tells them apart may be missing. Equal values may be shown once.

Key:
Format in all cases: binding
Settings in all cases: response relative to ADIFAB2
[1] = Probe fluorescence ratio response to oleic acid relative to ADIFAB2
Description: (§1) In an alternate preferred embodiment, the protein is rI-FABP that has Ala substituted for Leu at position 72 (rI-FABP-L72A) with the resulting probe named ADIFAB2. […] Other probes useful in embodiments of the invention are shown in Tables 1-6 and are also described in U.S. application Ser. No. 11/085,792, filed Mar. 21, 2005 which is incorporated herein by reference. The indicated substitutions are with reference to the ADIFAB protein of SEQ ID NO: 2.
(§2) ADIFAB2 also has an altered spectral response, making it especially useful for measurements of FFAu in blood samples (Apple et al, Clinical Proteomics, (2004) 1:41-44, U.S. patent application Ser. No. 10/670,958). The wavelengths at the maximum intensities emitted by these fluorescently-labeled I-FABP's in the absence of FFA is about 420 to 480 nm. The emission wavelengths at the maximum intensities emitted by these fluorescently-labeled I-FABP's with FFA bound are between about 495 to 580 nm. Experiments typically involve measuring the fluorescence response within both emission maxima or at wavelengths for which the effect of interfering molecules such as hemoglobin can be eliminated as described in U.S. application Ser. No. 10/670958 and PCT/US2004/030521 and the calculation of the ratio ‘R’ of the two fluorescence intensities. The baseline value for this ratio, measured in the absence of analyte, is designated R0.
(§3) The intensity ratio (“R” value) is determined as follows. The ratio is calculated using the following formula: R=Fλ1/Fλ2 wherein, Fλ1 is the measured fluorescence intensities (intensity of sample with probe present minus intensity of sample without probe present) at wavelength 1 and Fλ2 is the measured fluorescence intensities (intensity of sample with probe present minus intensity of sample without probe present) at wavelength 2. Then, for a given probe, ΔR, the difference in R value between the measurement in the presence of the test compound (agent) and in the absence of the test compound (agent), is calculated as follows: ΔR=R+agent−R0 In some embodiments, the ΔR value may then be compared to some reference, for example, an agent with a known affinity for a given probe, by ΔR/ΔRreference. Measurements of fluorescence intensities are obtained using standard techniques.

[2] = Probe fluorescence ratio response to linolenic acid relative to ADIFAB2
Description: as §1, §2, §3

[3] = Probe fluorescence ratio response to arachidonic acid relative to ADIFAB2
Description: as §1, §2, §3

[4] = Probe fluorescence ratio response to linoleic acid relative to ADIFAB2
Description: as §1, §2, §3

[5] = Probe fluorescence ratio response to palmitic acid relative to ADIFAB2
Description: as §1, §2, §3

B1: 117E, 72A (protein, listed as Rattus norvegicus)
chain: AFDGTWKVDRNENYEKFMEKMGINVVKRKLGAHDNLKLTITQEGNKFTVKESSNFRNIDVVFELGVDFAYSAADGTELTGTWTMEGNKLVGKFKRVDNGKELIAVREISGNELIQTETYEGVEAKRIFKKE
modifications: PEPTIDE (1)...(131) wild-type rat intestinal fatty acid binding protein
What does the source list for B1?
DR/DR OA [1]: 0.65 and 0.659; DR/DR LNA [2]: 0.64 and 0.638; DR/DR AA ([3]; arachidonic acid): 0.65 and 0.656; DR/DR LA [4]: 0.76 and 0.753; DR/DR PA [5]: 0.40 and 0.402

B2: 117I, 72A (protein, listed as Rattus norvegicus)
chain: AFDGTWKVDRNENYEKFMEKMGINVVKRKLGAHDNLKLTITQEGNKFTVKESSNFRNIDVVFELGVDFAYSAADGTELTGTWTMEGNKLVGKFKRVDNGKELIAVREISGNELIQTITYEGVEAKRIFKKE
modifications: PEPTIDE (1)...(131) wild-type rat intestinal fatty acid binding protein
What does the source list for B2?
DR/DR OA [1]: 0.67 and 0.676; DR/DR LNA [2]: 0.68 and 0.666; DR/DR AA ([3]; arachidonic acid): 0.68 and 0.674; DR/DR LA [4]: 0.80 and 0.789; DR/DR PA [5]: 0.41 and 0.408

B3: 117P, 72A (protein, listed as Rattus norvegicus)
chain: AFDGTWKVDRNENYEKFMEKMGINVVKRKLGAHDNLKLTITQEGNKFTVKESSNFRNIDVVFELGVDFAYSAADGTELTGTWTMEGNKLVGKFKRVDNGKELIAVREISGNELIQTPTYEGVEAKRIFKKE
modifications: PEPTIDE (1)...(131) wild-type rat intestinal fatty acid binding protein
For B3, which “DR/DR OA” value [1] is on record?
Its value is 0.73.

What about the “DR/DR LNA” value [2] of the same molecule?
The value was 0.83.

What about the “DR/DR AA” value ([3]; arachidonic acid) of the same molecule?
The value was 0.80.

What about the “DR/DR LA” value [4] of the same molecule?
Its value is 0.86.

And the “DR/DR PA” value [5]?
The value was 0.38.

B4: 117F, 72A (protein, listed as Rattus norvegicus)
chain: AFDGTWKVDRNENYEKFMEKMGINVVKRKLGAHDNLKLTITQEGNKFTVKESSNFRNIDVVFELGVDFAYSAADGTELTGTWTMEGNKLVGKFKRVDNGKELIAVREISGNELIQTFTYEGVEAKRIFKKE
modifications: PEPTIDE (1)...(131) wild-type rat intestinal fatty acid binding protein
What does the source list for B4?
DR/DR OA [1]: 1.37; DR/DR LNA [2]: 1.38; DR/DR AA ([3]; arachidonic acid): 1.33; DR/DR LA [4]: 1.36; DR/DR PA [5]: 1.20

B5: 117G, 72A (protein, listed as Rattus norvegicus)
chain: AFDGTWKVDRNENYEKFMEKMGINVVKRKLGAHDNLKLTITQEGNKFTVKESSNFRNIDVVFELGVDFAYSAADGTELTGTWTMEGNKLVGKFKRVDNGKELIAVREISGNELIQTGTYEGVEAKRIFKKE
modifications: PEPTIDE (1)...(131) wild-type rat intestinal fatty acid binding protein
For B5, which “DR/DR OA” value [1] is on record?
Its value is 0.84.

What about the “DR/DR LNA” value [2] of the same molecule?
Its value is 0.85.

What about the “DR/DR AA” value ([3]; arachidonic acid) of the same molecule?
Its value is 0.88.

And the “DR/DR LA” value [4]?
Its value is 0.92.

What about the “DR/DR PA” value [5] of the same molecule?
Its value is 0.39.

B6: 117K, 72A (protein, listed as Rattus norvegicus)
chain: AFDGTWKVDRNENYEKFMEKMGINVVKRKLGAHDNLKLTITQEGNKFTVKESSNFRNIDVVFELGVDFAYSAADGTELTGTWTMEGNKLVGKFKRVDNGKELIAVREISGNELIQTKTYEGVEAKRIFKKE
modifications: PEPTIDE (1)...(131) wild-type rat intestinal fatty acid binding protein
For B6, which “DR/DR OA” value [1] is on record?
Its value is 0.04.

And the “DR/DR LNA” value [2]?
The value was 0.37.

What about the “DR/DR AA” value ([3]; arachidonic acid) of the same molecule?
Its value is 0.34.

What about the “DR/DR LA” value [4] of the same molecule?
Its value is 0.43.

And the “DR/DR PA” value [5]?
Its value is 0.22.

B7: 74F, 72A (protein, listed as Rattus norvegicus)
chain: AFDGTWKVDRNENYEKFMEKMGINVVKRKLGAHDNLKLTITQEGNKFTVKESSNFRNIDVVFELGVDFAYSAAFGTELTGTWTMEGNKLVGKFKRVDNGKELIAVREISGNELIQTYTYEGVEAKRIFKKE
modifications: PEPTIDE (1)...(131) wild-type rat intestinal fatty acid binding protein
For B7, which “DR/DR LNA” value [2] is on record?
Its value is 1.36 and 1.04.

And the “DR/DR AA” value ([3]; Arachidonic acid)?
Its value is 1.02.

And the “DR/DR AA” value ([3]; arachidonic acid)?
Its value is 0.44.

And the “DR/DR LA” value [4]?
Its value is 1.19 and 0.67.

What about the “DR/DR PA” value [5] of the same molecule?
The value was 1.23 and 0.93.

B8: 117N, 72A (protein, listed as Rattus norvegicus)
chain: AFDGTWKVDRNENYEKFMEKMGINVVKRKLGAHDNLKLTITQEGNKFTVKESSNFRNIDVVFELGVDFAYSAADGTELTGTWTMEGNKLVGKFKRVDNGKELIAVREISGNELIQTNTYEGVEAKRIFKKE
modifications: PEPTIDE (1)...(131) wild-type rat intestinal fatty acid binding protein
Which “DR/DR OA” value [1] does the source give for B8 here?
The value was 1.40.

And the “DR/DR LNA” value [2]?
Its value is 1.37.

What about the “DR/DR AA” value ([3]; arachidonic acid) of the same molecule?
The value was 1.33.

And the “DR/DR LA” value [4]?
The value was 1.35.

What about the “DR/DR PA” value [5] of the same molecule?
Its value is 1.19.

B9: 117H, 72A (protein, listed as Rattus norvegicus)
chain: AFDGTWKVDRNENYEKFMEKMGINVVKRKLGAHDNLKLTITQEGNKFTVKESSNFRNIDVVFELGVDFAYSAADGTELTGTWTMEGNKLVGKFKRVDNGKELIAVREISGNELIQTHTYEGVEAKRIFKKE
modifications: PEPTIDE (1)...(131) wild-type rat intestinal fatty acid binding protein
Which “DR/DR OA” value [1] does the source give for B9 here?
Its value is 1.01 and 1.012.

And the “DR/DR LNA” value [2]?
The value was 0.94 and 0.924.

And the “DR/DR AA” value ([3]; arachidonic acid)?
Its value is 0.90 and 0.913.

And the “DR/DR LA” value [4]?
The value was 1.06 and 1.056.

And the “DR/DR PA” value [5]?
Its value is 0.63 and 0.659.

B10: 117M, 72A (protein, listed as Rattus norvegicus)
chain: AFDGTWKVDRNENYEKFMEKMGINVVKRKLGAHDNLKLTITQEGNKFTVKESSNFRNIDVVFELGVDFAYSAADGTELTGTWTMEGNKLVGKFKRVDNGKELIAVREISGNELIQTMTYEGVEAKRIFKKE
modifications: PEPTIDE (1)...(131) wild-type rat intestinal fatty acid binding protein
For B10, which “DR/DR OA” value [1] is on record?
Its value is 1.32.

And the “DR/DR LNA” value [2]?
Its value is 1.36.

What about the “DR/DR AA” value ([3]; arachidonic acid) of the same molecule?
Its value is 1.27.

What about the “DR/DR LA” value [4] of the same molecule?
Its value is 1.31.

And the “DR/DR PA” value [5]?
The value was 1.14.

B11: 117L, 72A (protein, listed as Rattus norvegicus)
chain: AFDGTWKVDRNENYEKFMEKMGINVVKRKLGAHDNLKLTITQEGNKFTVKESSNFRNIDVVFELGVDFAYSAADGTELTGTWTMEGNKLVGKFKRVDNGKELIAVREISGNELIQTLTYEGVEAKRIFKKE
modifications: PEPTIDE (1)...(131) wild-type rat intestinal fatty acid binding protein
Which “DR/DR OA” value [1] does the source give for B11 here?
The value was 0.35.

And the “DR/DR LNA” value [2]?
Its value is 0.39.

And the “DR/DR AA” value ([3]; arachidonic acid)?
Its value is 0.38.

What about the “DR/DR LA” value [4] of the same molecule?
Its value is 0.43.

What about the “DR/DR PA” value [5] of the same molecule?
The value was 0.29.
